Laboratory results published in patent publication US20180057581A1 (MorphoSys, published 2018).

Key:
Test in all cases: MSD specificity profiling, coated protein
Myoglobin (horse) = Myoglobin (horse) (horse, UniProt P68082 2-154)
Method: (§1) For this specificity profiling test the different proteins and controls were coated on two 384-well MSD plates with a concentration of 1 μg/ml at 4° C. over night. Plates were blocked with BSA and washed three times with PBS with 0.05% (v/v) Tween 20. Antibody samples were diluted to 100 nM and 10 nM in assay buffer (PBS with 0.5% (w/v) BSA, 0.05% (v/v) Tween 20). […] Samples and controls were incubated for three hours at room temperature. The plates were washed three times and 30 μl detection antibody (ECL-labeled anti-human Fab) were added per well and incubated for 1 h. After washing, MSD Read Buffer T with surfactant was added and electrochemiluminescence signals were detected using a Sector Imager 6000 (Meso Scale Discovery, Gaithersburg, Md., USA).

Serum albumin (human) = Serum albumin (human) (human, UniProt P02768 25-609)
Method: as §1

Lectin (Lens culinaris) = target: T1, Lectin (Lens culinaris) (Lens culinaris, UniProt P02870 31-210; P02870 218-269, limits assumed)
T1 sequence (looked up) 1: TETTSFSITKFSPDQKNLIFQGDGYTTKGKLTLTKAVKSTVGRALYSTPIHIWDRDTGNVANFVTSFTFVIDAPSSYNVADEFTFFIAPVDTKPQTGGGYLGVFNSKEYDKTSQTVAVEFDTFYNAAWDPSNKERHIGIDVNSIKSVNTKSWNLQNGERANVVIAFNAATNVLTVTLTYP
T1 sequence (looked up) 2: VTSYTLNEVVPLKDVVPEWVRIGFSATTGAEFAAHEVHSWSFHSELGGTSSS
Method: as §1

Cytochrome c (cow) = Cytochrome c (cow) (cow, UniProt P62894 2-105)
Method: as §1

RNase A (cow) = target: T2, RNase A (cow) (cow, UniProt P61823 27-150)
T2 sequence (looked up): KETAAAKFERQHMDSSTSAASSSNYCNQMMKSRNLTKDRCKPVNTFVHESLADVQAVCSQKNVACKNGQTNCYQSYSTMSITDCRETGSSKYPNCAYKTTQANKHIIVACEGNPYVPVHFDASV
Method: as §1

Trypsinogen (cow) = target: T3, Trypsinogen (cow) (cow, UniProt P00760 18-246)
T3 sequence (looked up): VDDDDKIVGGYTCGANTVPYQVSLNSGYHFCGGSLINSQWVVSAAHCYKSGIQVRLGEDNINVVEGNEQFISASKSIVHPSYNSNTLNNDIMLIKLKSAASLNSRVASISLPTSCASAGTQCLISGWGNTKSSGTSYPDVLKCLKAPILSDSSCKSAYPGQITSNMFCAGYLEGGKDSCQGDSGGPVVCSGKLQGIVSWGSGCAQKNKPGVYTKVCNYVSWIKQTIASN
Method: as §1

Ovalbumin (chicken) = target: T4, Ovalbumin (chicken) (chicken, UniProt P01012 2-386)
T4 sequence (looked up): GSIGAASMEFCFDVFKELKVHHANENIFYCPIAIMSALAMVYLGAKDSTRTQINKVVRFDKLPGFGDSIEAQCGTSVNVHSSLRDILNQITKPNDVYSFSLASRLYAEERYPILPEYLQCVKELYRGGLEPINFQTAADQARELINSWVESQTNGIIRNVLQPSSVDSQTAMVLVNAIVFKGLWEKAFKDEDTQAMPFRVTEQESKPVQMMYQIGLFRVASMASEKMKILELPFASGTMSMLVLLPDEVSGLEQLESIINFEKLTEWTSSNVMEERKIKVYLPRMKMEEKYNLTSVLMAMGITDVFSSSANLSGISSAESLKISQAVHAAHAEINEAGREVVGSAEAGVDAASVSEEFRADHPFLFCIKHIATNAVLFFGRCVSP
Method: as §1

Chain of Myoglobin (horse) (P68082 2-154 limits assumed): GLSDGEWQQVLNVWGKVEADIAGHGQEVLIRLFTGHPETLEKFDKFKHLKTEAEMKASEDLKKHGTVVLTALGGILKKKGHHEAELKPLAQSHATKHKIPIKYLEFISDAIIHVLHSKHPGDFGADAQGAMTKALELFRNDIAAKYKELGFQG
Chain of Cytochrome c (cow) (P62894 2-105 limits assumed): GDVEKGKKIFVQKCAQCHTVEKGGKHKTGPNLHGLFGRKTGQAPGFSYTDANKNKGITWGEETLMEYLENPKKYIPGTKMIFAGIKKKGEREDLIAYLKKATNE

B1: Camille (format not stated) (antibody, V domains shown)
VH: QVQLQQSGPGLVKPSQTLSLTCAISGESVSTSSAAWNWIRQSPSRGLEWLGRTYYRSKWKHEYAVSVKSRITINPDTSKNQFSLQLNSVTPEDTAVYYCARDRYYYSAFDYWGQGTLVTVSS
VL: QSALTQPASVSGSPGQSITISCTGTSSDVGGYNSVSWYQQHPGKAPKLLIYAVSNRPSGVSNRFSGSKSGNTASLTISGLQAEDEADYYCASYDERFTRVFGGGTKLTVLG
notes: also called Antibody Camille
B1: no binding (tested: 100 nM and 10 nM antibody) (Myoglobin (horse)); no binding (tested: 100 nM and 10 nM antibody) (Serum albumin (human)); no binding (tested: 100 nM and 10 nM antibody) (Lectin (Lens culinaris)). B1: no binding (tested: 100 nM and 10 nM antibody) (Cytochrome c (cow)); no binding (tested: 100 nM and 10 nM antibody) (RNase A (cow)); no binding (tested: 100 nM and 10 nM antibody) (Trypsinogen (cow)). B1: no binding (tested: 100 nM and 10 nM antibody) (Ovalbumin (chicken)).
